In experiment [1] the target is T1, Arabidopsis thaliana PHYTOCHROME A SIGNAL TRANSDUCTION1 (Arabidopsis thaliana, UniProt Q9LDL7 1-490).
T1 construct: 490 aa; Y2H fusion domains not described; also called PAT1; At5g48150
T1 sequence: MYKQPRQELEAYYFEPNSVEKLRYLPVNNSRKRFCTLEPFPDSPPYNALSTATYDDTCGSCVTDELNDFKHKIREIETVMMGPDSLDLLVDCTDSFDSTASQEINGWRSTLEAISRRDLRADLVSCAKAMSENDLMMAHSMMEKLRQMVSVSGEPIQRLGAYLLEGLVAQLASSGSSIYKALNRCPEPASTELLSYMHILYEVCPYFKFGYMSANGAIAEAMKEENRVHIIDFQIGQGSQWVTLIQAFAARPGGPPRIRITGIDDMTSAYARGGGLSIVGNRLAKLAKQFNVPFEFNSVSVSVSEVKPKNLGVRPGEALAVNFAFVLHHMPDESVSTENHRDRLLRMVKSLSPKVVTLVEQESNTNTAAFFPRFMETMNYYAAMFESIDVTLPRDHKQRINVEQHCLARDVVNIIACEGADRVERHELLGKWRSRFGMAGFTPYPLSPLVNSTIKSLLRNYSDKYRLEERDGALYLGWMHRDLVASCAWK
Kind of experiment: yeast two-hybrid.

Experiment [2] concerns the target T2, Arabidopsis thaliana SCARECROW-LIKE 21 (Arabidopsis thaliana, UniProt Q9S7H5 1-413).
T2 construct: Y2H fusion domains not described; Also the endogenous protein co-purifying in the ERF115 TAP; also called SCL21; AT2G04890
T2 sequence: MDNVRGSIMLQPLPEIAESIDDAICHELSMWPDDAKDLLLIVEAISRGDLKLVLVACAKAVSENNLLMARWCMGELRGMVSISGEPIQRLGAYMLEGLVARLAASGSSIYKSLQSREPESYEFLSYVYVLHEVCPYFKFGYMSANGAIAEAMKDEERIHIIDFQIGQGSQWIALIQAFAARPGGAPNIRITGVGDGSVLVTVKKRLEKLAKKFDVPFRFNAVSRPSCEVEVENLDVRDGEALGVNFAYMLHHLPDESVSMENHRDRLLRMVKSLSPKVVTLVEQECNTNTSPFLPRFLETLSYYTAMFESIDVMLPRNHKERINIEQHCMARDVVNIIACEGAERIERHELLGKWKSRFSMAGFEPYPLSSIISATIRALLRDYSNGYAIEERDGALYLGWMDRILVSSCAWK
Kind of experiment: yeast two-hybrid with ERF115 fragments. As for the experimental part:
FIGS. 1A-1L. ERF115 interacts with SCL21 and PAT1. FIG. 1A, Protein interactions identified through TAP using ERF115 and SCL21 as bait. Arrowheads point towards co-purifying proteins. FIG. 1B, Yeast two-hybrid interaction of ERF115 full length and fragments with SCL21 and PAT1. Growth was verified on control medium (+HIS) or selective medium (−HIS) supplemented with 15 mM 3-Amino-1,2,4-triazole (3-AT), using β-glucuronidase (GUS) as a negative control. FIG. 1C, Yeast two-hybrid interaction of ERF2 and ERF6 without (−) or fused to the conserved ERF115 interaction motif (+) with SCL21. The assay was performed similar to (FIG. 1B). […], Root tips expressing ERF115 (dots) (FIGS. 1D and 1E), SCL21 (no expression visible) (FIGS. 1F and 1G), and PAT1 (dots) (FIGS. 1H And 1I) under control conditions (FIGS. 1D, 1F, and 1H) or treated with bleomycin (FIGS. 1E, 1G, and 1I). Arrowheads indicate the quiescent center (QC). Cell walls are counterstained with propidium iodide (PI). Bars=50 μm. FIGS. 1J-1L, Expression of PAT1 (green) and ERF115 (red) in root tips 10 h15 to 11 h30 after recovery from bleomycin treatment. […] Cell walls are counterstained (white) by SCRI Renaissance 2200 dye. Bars=25 μm.

Data on one molecule can be found in patent US20240294931A1 (VIB VZW, published 2024).

B1: Arabidopsis thaliana ERF115 A-fragment (N-terminal sequence that precedes the APETALA2 domain) (other)
chain: MANSGNYGKRPFRGDESDEKKEADDDENIFPFFSARSQYDMRAMVSALTQVIGNQSSSHDNNQHQPVVYNQQDPNPPAPPTQDQGLLRK
notes: Y2H fusion domains not described
B1: the binding result in experiment [1] and in experiment [2] was “binds” throughout.
